Measurements from patent US20180264072A1.

Experiments:
[1] = target: talin H1-H4; assay: isothermal titration calorimetry
[2] = target: talin H1-H4; assay: size exclusion chromatography; stoichiometry listed for the ternary complex
[3] = target: talin H1-H4; assay: ITC; HVD1:A483 equimolar complex in the cell, talin H1-H4 as titrant
[4] = target: T1, vinculin in C2.7 mouse myoblast cells (mouse) (UniProt Q64727); assay: cell-based or functional assay
T1 sequence: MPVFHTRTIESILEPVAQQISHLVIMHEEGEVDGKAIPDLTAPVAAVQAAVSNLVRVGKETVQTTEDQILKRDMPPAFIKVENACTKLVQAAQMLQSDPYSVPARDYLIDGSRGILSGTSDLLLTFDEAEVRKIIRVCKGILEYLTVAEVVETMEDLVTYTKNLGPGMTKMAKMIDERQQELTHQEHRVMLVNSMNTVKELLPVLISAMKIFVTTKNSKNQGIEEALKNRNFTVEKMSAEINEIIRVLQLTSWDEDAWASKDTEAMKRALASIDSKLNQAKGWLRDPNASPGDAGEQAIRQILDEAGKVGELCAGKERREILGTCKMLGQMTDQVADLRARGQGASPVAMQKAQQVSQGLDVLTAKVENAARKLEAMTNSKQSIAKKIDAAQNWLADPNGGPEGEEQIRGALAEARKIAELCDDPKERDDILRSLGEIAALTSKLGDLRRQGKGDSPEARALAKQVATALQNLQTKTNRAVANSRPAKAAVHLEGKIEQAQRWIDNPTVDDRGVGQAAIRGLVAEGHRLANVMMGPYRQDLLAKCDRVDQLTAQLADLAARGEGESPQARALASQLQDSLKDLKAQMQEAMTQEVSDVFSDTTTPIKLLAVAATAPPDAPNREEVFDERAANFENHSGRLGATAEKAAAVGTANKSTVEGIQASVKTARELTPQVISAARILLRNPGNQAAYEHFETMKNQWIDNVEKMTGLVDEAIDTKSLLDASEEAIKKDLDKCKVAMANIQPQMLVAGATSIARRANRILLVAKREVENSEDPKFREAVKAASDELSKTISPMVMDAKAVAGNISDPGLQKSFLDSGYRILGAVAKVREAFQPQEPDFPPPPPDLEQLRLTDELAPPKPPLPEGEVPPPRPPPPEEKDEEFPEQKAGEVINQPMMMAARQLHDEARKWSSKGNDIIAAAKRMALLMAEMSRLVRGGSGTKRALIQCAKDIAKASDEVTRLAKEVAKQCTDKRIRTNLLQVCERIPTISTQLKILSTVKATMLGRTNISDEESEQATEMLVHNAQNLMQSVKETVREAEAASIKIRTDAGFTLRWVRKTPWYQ

[5] = target: talin H1-H4; assay: ITC; A483 in the cell, talin H1-H4 as titrant
[6] = target: talin H1-H4; assay: size exclusion chromatography; stoichiometry listed for the complex
[7] = target: talin H1-H4; assay: ITC; A524 in the cell, talin H1-H4 as titrant
[8] = target: talin H1-H4; assay: ITC; talin H1-H4 in the cell, IpaA VBS1 peptide as titrant
[9] = target: talin H1-H4; assay: ITC; talin H1-H4 in the cell, IpaA VBS3 peptide as titrant
[10] = target: talin in HeLa cells (UniProt Q9Y490); assay: cell-based or functional assay
[11] = target: talin H1-H4; assay: isothermal titration calorimetry, cell talin H1-H4, titrant talin H46 (VBS3)

Chain of IpaA 524-633 (A524) (P18010 524-633 limits assumed): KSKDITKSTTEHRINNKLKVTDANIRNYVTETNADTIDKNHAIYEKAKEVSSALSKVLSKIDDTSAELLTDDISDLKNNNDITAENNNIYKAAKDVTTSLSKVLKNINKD
Chain of A483:HVD1 complex (P18010 483-633 limits assumed): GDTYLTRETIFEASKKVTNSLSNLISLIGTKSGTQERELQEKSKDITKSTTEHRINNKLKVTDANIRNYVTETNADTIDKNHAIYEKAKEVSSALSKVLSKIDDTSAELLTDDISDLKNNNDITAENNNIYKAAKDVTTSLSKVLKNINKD
Chain of IpaA 483-633 (A483) (P18010 483-633 limits assumed): as above
Chain of GFP-A483 (P18010 483-633): as the sequence (P18010 483-633 limits assumed) above
Chain of talin H1-H4 (P26039 482-636): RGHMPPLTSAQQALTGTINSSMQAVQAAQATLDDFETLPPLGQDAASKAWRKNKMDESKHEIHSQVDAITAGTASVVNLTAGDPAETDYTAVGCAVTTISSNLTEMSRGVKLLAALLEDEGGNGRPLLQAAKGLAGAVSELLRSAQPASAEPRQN
Chain of IpaA full length (P18010 whole entry): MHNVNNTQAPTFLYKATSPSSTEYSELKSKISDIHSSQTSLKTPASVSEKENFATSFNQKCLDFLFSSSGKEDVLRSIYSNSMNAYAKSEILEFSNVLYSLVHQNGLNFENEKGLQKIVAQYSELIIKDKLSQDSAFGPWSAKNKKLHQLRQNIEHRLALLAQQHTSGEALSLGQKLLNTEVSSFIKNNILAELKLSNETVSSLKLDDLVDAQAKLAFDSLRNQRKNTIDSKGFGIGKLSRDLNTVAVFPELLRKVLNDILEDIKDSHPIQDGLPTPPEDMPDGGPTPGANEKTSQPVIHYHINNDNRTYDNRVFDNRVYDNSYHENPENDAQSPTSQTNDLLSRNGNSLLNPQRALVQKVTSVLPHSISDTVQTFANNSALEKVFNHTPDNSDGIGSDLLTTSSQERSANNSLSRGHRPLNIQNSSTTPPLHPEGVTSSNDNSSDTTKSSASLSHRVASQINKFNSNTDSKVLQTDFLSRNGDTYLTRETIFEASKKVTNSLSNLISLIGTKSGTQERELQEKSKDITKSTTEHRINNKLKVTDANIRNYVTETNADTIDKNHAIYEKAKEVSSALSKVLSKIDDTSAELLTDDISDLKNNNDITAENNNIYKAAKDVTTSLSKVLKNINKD
Chain of talin in HeLa cells (Q9Y490 whole entry): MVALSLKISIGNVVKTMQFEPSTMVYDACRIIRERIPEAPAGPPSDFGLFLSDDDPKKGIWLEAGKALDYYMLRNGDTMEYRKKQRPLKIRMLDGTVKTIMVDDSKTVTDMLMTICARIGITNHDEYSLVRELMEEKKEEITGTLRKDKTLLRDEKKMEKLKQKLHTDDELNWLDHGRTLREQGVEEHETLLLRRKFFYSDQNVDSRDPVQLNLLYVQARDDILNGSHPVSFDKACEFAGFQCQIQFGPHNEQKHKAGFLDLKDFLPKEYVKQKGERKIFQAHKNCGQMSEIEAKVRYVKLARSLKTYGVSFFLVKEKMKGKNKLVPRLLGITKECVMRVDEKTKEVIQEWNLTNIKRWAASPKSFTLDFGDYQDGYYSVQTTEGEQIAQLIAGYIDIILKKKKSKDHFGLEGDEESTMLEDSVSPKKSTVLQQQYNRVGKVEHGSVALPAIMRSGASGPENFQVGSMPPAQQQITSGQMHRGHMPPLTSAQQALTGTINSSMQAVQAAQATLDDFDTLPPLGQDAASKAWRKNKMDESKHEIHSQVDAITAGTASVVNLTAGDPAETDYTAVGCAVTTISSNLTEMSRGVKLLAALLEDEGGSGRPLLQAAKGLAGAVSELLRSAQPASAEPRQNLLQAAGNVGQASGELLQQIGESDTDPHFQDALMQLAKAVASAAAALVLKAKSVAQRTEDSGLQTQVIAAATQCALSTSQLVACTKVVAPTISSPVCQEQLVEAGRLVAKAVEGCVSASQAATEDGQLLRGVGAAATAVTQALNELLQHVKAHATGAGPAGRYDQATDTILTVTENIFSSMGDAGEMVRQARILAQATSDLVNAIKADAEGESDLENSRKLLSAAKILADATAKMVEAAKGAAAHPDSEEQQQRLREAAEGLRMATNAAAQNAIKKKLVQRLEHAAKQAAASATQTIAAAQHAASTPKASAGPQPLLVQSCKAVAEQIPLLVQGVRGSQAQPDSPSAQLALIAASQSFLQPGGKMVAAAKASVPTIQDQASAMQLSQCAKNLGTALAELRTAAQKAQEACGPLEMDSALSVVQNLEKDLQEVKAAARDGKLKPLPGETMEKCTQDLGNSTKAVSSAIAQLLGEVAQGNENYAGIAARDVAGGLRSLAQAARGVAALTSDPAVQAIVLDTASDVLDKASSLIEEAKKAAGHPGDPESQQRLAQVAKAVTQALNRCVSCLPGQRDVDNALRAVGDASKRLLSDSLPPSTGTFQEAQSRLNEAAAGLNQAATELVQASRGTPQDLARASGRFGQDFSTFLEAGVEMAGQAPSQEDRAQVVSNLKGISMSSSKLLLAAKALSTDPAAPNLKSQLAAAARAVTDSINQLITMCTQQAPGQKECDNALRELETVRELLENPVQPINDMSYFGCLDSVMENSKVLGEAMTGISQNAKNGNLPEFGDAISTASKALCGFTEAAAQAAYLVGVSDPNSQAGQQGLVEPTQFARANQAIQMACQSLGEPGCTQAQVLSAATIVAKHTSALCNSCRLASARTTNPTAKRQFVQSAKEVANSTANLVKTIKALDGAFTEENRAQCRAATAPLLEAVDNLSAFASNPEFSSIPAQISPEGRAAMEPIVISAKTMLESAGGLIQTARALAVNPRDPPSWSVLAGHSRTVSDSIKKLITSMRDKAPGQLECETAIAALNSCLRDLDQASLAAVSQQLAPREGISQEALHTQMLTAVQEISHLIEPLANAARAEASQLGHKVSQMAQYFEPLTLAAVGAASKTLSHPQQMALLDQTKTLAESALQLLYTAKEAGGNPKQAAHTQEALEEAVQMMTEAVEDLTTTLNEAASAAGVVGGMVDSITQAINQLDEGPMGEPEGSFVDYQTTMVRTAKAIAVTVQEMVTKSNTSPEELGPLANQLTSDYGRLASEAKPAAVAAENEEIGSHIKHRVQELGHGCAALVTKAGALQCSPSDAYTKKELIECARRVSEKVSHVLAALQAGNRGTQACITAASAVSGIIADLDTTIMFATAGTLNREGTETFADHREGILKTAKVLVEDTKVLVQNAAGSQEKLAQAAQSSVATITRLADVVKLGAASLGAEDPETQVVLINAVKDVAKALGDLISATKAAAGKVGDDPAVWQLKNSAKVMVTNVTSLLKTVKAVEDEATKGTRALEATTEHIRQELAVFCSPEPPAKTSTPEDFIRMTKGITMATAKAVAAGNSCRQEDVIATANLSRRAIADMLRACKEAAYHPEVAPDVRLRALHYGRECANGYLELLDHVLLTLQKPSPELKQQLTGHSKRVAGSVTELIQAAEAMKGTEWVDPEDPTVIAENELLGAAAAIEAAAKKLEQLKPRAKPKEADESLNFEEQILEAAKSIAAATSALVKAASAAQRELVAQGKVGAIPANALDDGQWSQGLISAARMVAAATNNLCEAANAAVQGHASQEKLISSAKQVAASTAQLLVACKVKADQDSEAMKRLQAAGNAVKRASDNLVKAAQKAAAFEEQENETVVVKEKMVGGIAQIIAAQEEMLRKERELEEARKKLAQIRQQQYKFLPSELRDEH

“A483:HVD1 complex (from UniProt P18010 483-633; P18206 1-258)” gave a -TΔS [1] of 1.37 kcal/mol, a stoichiometry [2] of 1 and a -TΔS [3] of -1.37 kcal/mol. The N (stoichiometry) [3] was 0.459, the ΔG [3] was -7.68 kcal/mol and the ΔH [3] was -9.05 kcal/mol.

GFP-A483 (from UniProt P18010 483-633) showed an adhesion stress σ=F/A at detachment, parallel plates [4] of 6.5 nN/µm^2, a median cell surface [4] of 1850 µm^2 and a median time between two divisions (second group of GFP-A483 cells) [4] of 17.1 h. For the same substance, the median velocity of migration [4] was 30.7 µm/hour and the rate of single-cell traction force generation (dF/dt), parallel plates [4] was 0.4.

“IpaA 483-633 (A483) (from UniProt P18010 483-633)” gave a -TΔS [5] of -3.8 kcal/mol, a Kd [5] of 0.0249 µM and a N (stoichiometry) [5] of 1. The ΔG [5] was -10 kcal/mol, the ΔH [5] was -6.23 kcal/mol and the stoichiometry (molar ratio of the complex (1:1)) [6] was 1.

Substance “IpaA 524-633 (A524) (from UniProt P18010 524-633)” has a -TΔS [7] of -3.47 kcal/mol, a Kd [7] of 2.03 µM and a N (stoichiometry) [7] of 1.5. For the same substance, the ΔG [7] was -7.45 kcal/mol, the ΔH [7] was -3.98 kcal/mol and the stoichiometry (molar ratio of the complex (1:1)) [6] was 1.

IpaA VBS1 peptide showed a -TΔS [8] of -2.47 kcal/mol, a Kd [8] of 15.2 µM and a N (stoichiometry) [8] of 1.22. The ΔG [8] was -6.58 kcal/mol and the ΔH [8] was -4.1 kcal/mol.

In the case of IpaA VBS3/TBS peptide, the -TΔS [1] is reported as -1.53 kcal/mol, the Kd [1] is reported as 0.15 µM and the ΔG [1] is reported as -9.07 kcal/mol. The -TΔS [9] was -2.83 kcal/mol, the Kd [9] was 0.175 µM and the N (stoichiometry) [9] was 0.893. The ΔG [9] was -9.22 kcal/mol and the ΔH [9] was -6.39 kcal/mol.

“IpaA full length (from UniProt P18010 1-633)” gave a percentage of foci forming talin coat structures [10] of 52%.

In the case of “talin H46 (talin VBS3) α-helix (peptide)”, the -TΔS [1] is reported as 7.2 kcal/mol, the Kd [1] is reported as 0.06 µM and the ΔH [1] is reported as -17 kcal/mol. The N [11] was 0.92 and the ΔG [11] was -9.97 kcal/mol.
